{
  "source": "paper PMC8420761",
  "molecular_target": "Mycobacterium tuberculosis H37Rv HigA2 antitoxin (Mycobacterium tuberculosis H37Rv) (UniProt O53467)",
  "test": "not stated; in solution; purified MtHigA2",
  "data": [
    {"substance": "Mycobacterium tuberculosis H37Rv HigA2 antitoxin (from UniProt O53467 1-101) (natural protein)", "values": [
      {"measurement": "stoichiometry N", "value": 2}
    ]}
  ]
}
